Patent publication US10801046B2, “Methods and materials for biosynthesizing multifunctional, multivariate molecules via carbon chain modification” (INVISTA NORTH AMERICA S.A.R.L., priority 2016, dated 2020)

B1: SEQ ID NO: 187: Eggerthella sp. CAG:1427 thioesterase (protein)
chain: MTIGYEQTYQLRTGDFDRYAHLLPSSILDVFQDVAGVNAEQVPGMTWKELTDAGLFWVVTRIKYEVIETPHLHEQVIARTWPLAPTRLGFQREYTMRKLDGTPLVKCSSDWILMDYKTRSFASARDFYNGPQDFSEEKVFEKKLRKIKTFEPEDTGETFQVHFVDIDINGHVNNSKYPNFVMNSLDLGEDETIKTFQIDYRHELRAGSTVRIHSKRDGNVITSMGISTEGDTAGECMFATQIELA
modifications: Eggerthella sp. CAG:1427
notes: Eggerthella sp; CAG:1427 thioesterase
B2: SEQ ID NO: 91: Cryptobacterium curtum thioesterase (protein)
chain: MTISASLFLEKDYRLRTGDFDRYRRLHPTAVLDLFQDIGGLQAEMMGIGYDAMAAQDVFWAVVRTAYQVEHTPAEHEVVKVSTWPHSPSRYSFQRDYALRSTDGSLLVRGTSEWVLMDMNTRSLTSVLDYYHGSLDFIDERMFAKKLRKIRDFTEEGSGLSITPRYSDVDQNGHVNNARYASFVLDALDPSAAGSIASFQIDFRHEVIEGTPLVVFTQVEGKDIQAKGLDSNGEIKFACKITAQA
modifications: Cryptobacterium curtum (strain ATCC 700683 / DSM 15641 / 12-3)
notes: Cryptobacterium curtum thioesterase
B3: SEQ ID NO: 184: [Clostridium] ultunense Esp thioesterase (protein)
chain: MKATPLYIKDYKVEINHVDFKGDLKLSSLFTYCQDIAGLHAENLGMGREVLYTQHRVIWVLVRVRVDIIKYPKWKDILTLETWPQEPSRMGFDRDFLIKDKKGNILAKAVSTWVVIDVESRKLVRTKSVYTGYPLVVEKRAIDCKLGNLKSSGELETAYERTVRYSDIDVNEHLNNAKYLDFIMDSFSFEEHRRFNVKSVEISYSNEALLGETIKIYEDRSRIDSNIIYMEGIREGKDLVFKSQIEIEEK
modifications: Clostridium ultunense Esp
notes: [Clostridium] ultunense Esp thioesterase
B4: SEQ ID NO: 88: Clostridium sulfidigenes thioesterase (protein)
chain: MELNYKEQFTIKFHEGDFMGNVKLFTIMDYVQQVSEGHSQILGVDFQSMMNKGLFWVVSRVEITMERYPKVGEDITVETCLGGREKVFMKRRFKIKDKDGQVIGRVLIYYLIVDIETRLPQKPSMCPVDININVGDVIDNKLNKIKMPGEAIETVNRKLYYNDIDINNHVNNAKYISFIEDFFSLDWHRVKKISYMQLNFIKEIKFDDSLIMNKFIEDKESNSFCINGISEISEQEFFQCRLKF
modifications: Clostridium sulfidigenes
notes: Clostridium sulfidigenes thioesterase
B5: SEQ ID NO: 215: Schizopora paradoxa carboxylate reductase (protein, listed as Schizopora paradoxa)
chain: MASTLLQDVSPAPPLMISPLEIPLPEPVDFSKQAVEVPGTRRPGQTGHYQNAVWGFKAFPEEGPVYTLPDVFELGLSLEKNGQTSNKPFLGHRPVISAEPLKFASDYVWSTYAEADERRQNVGSALEKYFRDGTLGGGEYQTVGIWSQNRAEWQIVELACHAYGKVSVSLYDTLGKDSVEYIIEHAHLTVIFVTSQHIPLLLAMASKVPMLKLIVSVDELSSEAKRIMGIWSRTANVQVMELSELEQFGKANRLNMARPIGKSLATICYTSGTTSGPKGVLLTHSNLVSSVKSNLRASHFGEKGGIMMSYLPLAHIYERITELCTMALGGQIGFFTGDPLRLLEDASILKPNFFPSVPRVLNRVYQSAMLAGQTPGLKGYLFRTAMDAKLKKLHETGDNTHMLWDRLVFRKIQALLGGNVELVSCGSAPISVDVMDFLKIAFSCDVIEGYGMTENCGTCTRCWPNDPSSSGTVGAPQPCNEIKLVDVPSMNYTSNDKPNPRGEVCLRGNNCFSTYYKDEKNTRETVDEEGWLHTGDVGEIDSAGRLKIIDRIKNIMKLAQGEYVALEKIENVYGLHPLVAQLYVHGESLQDHLVGVIVPDPTQFAILCNSIRGTKIGANDSAELATAARDPAVAQAVLREITHEAKKAALKGFEMIKKIHLTTVPFSTENGLLTPTFKVRRKDCSIYFKEELAALYAQPTSMLK
B6: SEQ ID NO: 214: Mycobacterium lepromatosis carboxylate reductase (protein, listed as Mycobacterium lepromatosis)
chain: MSTTNTQEEQLARRVDYLTANDPQFAAAKPDPAVVAALAQPGLRLPQIIQTTLDGYAERPALGQRVVEFIKDPKTGRTSIELLPCFETITYRELSDRVGALARAWIHDLLHAGDRVCVLGFNSVDYAIIDMALGVISAVAVPLQTSAAITQLQPIVIETEPRVIAASVNQLPDTVELILSGPAPAKLVVFDYHPEADEQRDAVATARERLVDNNVVVESLIEVLDRGKTLPATPIPVADDSDDPLALLIYTSGSTGAPKGAMYPQSNVGKMWRRSDGNWFRSTAASITLNFMPMSHVMGHGILYGTLGNGGTAYFAARSDLSTLLEDLKLVRPTELNFVPRIWETLYDECQHAVDRRLTNSGSADRAAIEAEVMDEQRQSLLGGRYIAAMTGSAPTSPELKHGVESLLEMHLLEGYGSTEAGMVLFDGEVQRPPVIDYKLVDVPDLGYFSTDQPYPRGELLLKTQNMFPGYYKRPEVTATVFDGDGYYQTGDIVAEVGPARLVYVDRRNNVLKLAQGQFVTVAQLEAAFSNSPLVRQIYIYGNSAHPYLLAVVVPTEDALATNDIEALKPLIIDSLQEVAKEAELQSYEVPRDLIIETTPFSLENGLLTGIRKLAWPKLKQHYGARLEQLYADLAEGQTNALHALRQSGAEAPVLQTVSRAAGTILGAATTDLPSNAHFTDLGGDSLSALTFSNLLRELFNIDVPVGVIVSPVNDLAAIADYIESEQQGTKRPTFTAIHGRDAGEVHASDLTLDKFIDVSTLTAAPMLAQPDAEVRTVLLTGATGFLGRYLALKWLERMDLVDGKVIALVRAKSNEEARARLGKTFDSGDPKLLAHYQELAADHLEVIAGDKGEVELELDRQTWRRLADTVDLIVDPAALVNHVLPYSELFGPNALGTAELIRIALTSKQKPYIYVSTIGVGDQIEPAKFTEDSDIRVTSPTRKINDNYANGYGNSKWAGEVLLREAHELCGLPVAVFRCDMILADTSYAGQLNVPDMFTRMMLSLAATGIAPGSFYELDAESNRQRAHYDGLPVEFIAEAISTLGAQSLHGRDGFATYHVMNPHDDGIGMDEFVDWLIDAGCPIQRINDYDEWLRRFEISLRALPERQRHNSLLPLLHNYQKPEKPLNGSLAPTDRFRTAVQESKIVQDKDIPHISSAIIGKYVSDLQLLGLLRRQADRSPARVPS
B7: SEQ ID NO: 95: Aerococcus viridans ATCC 11563 thioesterase (protein)
chain: MINIRHYQGGKRMGLLYQESVKVRHYHCNALGEMTLPAILDIMLIASNNQEATIPEAKEGFRQEGWAWIITQNQIDINRLPRYDEDIIAETEATTYNKFFSKRHYALKTRDGLVLAQAETTFALIDLNQRSIVRIPEIVAEWYQVEKEERPSRRKRLNKEIAVESKLDRFEVKFLDIDLNNHVNNTIYLRWITNSLGMEWFEKYTPTSFTVAYEKEMYLHQEGAVHSDISTVSEDLKSGDTFNSQHVIDSEDKAHCLTEITWQVK
modifications: Aerococcus viridans ATCC 11563 = CCUG 4311
notes: Aerococcus viridans ATCC 11563 thioesterase
B8: SEQ ID NO: 182: Firmicutes bacterium CAG:449 thioesterase (protein)
chain: MNYYQKELVLQEKDFINDELSPYSILNYFQDIAGIHADKIGLSHEELIKNDLVWVVLRNKYEIIKMPSINQKVILKTWPHQKGKIDFDREYAIYDENNNLLIKGLSKWILMNYKTRRISMFNNIKYSFECLEETNFENKFNKIEDFDINNFSFIETTTSENDLDINGHVNNASYARIVLNNIDFDITINHFEINYIKEIKANQKLKIYYLKKDNTYYIKAFNNEEVIFVLIVY
modifications: Firmicutes bacterium CAG:449
notes: Firmicutes bacterium CAG:449 thioesterase
B9: SEQ ID NO: 183: Clostridium sp. CAG: 798 thioesterase (protein)
chain: MAIIENKYHIGIKYVDKDRLLSLRGIILLFEDIACRHSDMVGYGINDVTKTHFSWVLLNWKIKVLSRINYGSIVTVKTWSRETSKLYTYRDFEIYDENNNLICIASSKWVLLSTETGHIIHITEEIKNAYLAENKTVFNESDLHKIVEPDNAEKTFSFTVRRRDIDINNHMNNLYYLDYALEALPEEVYSKFFNNVEIMYKYSAKLGETINCFYKEEEDGYYVMMKSATDNILHALVKLY
modifications: Clostridium sp. CAG:798
notes: Clostridium sp; CAG: 798 thioesterase
B10: SEQ ID NO: 185: Granulicatella elegans ATCC 700633 thioesterase (protein)
chain: MTVDVICQIERTILPYECDWKENLLLSQALGMMMLASRKQQQQLQNPNLIYEKGYTWIVIQHEIEIQRMPKVDEEVIIETQAISYNKFFTYREYRILSKEREELFKCITTFAMLDMKARKIVSIDEEVVLEYPLSIGKEMRKATRIPKKDFSDATTGEYKIRINDIDANLHVNNARYFDFAFSELGMEFIEDHQLKQVVIKYEKEVLPESTISCSTLWEENTLESQERRQTYHLISQDGNRCANIQMKWEEIV
modifications: Granulicatella elegans ATCC 700633
notes: Granulicatella elegans ATCC 700633 thioesterase

Experiments:
heptanedioyl-ACP = test: Cell lysate in vitro thioesterase screen (DTNB, absorbance at 410 nm) on heptanedioyl-ACP; assay type: biochemical; conditions: 0.33 mM acyl-ACP substrate, 30° C., 30 min
[1] = tested on: heptanedioyl-ACP methyl ester; test: Cell lysate in vitro thioesterase screen (DTNB, absorbance at 410 nm) on heptanedioyl-ACP methyl ester; assay type: biochemical; conditions: 0.33 mM acyl-ACP substrate, 30° C., 30 min
[2] = In vivo carboxylate reductase screening, substrate consumption by LC-MS, monomethyl heptanedioate; assay type: cell-based, Escherichia coli; conditions: 541 enzymes screened in vivo
Experimental: To screen carboxylate reductases in vivo, […] T7- pUC expression vectors was co-transformed into T7 Express lysY/Iq with the phosphopantetheinyl transferase sfp from Bacillus subtilis on a T7-pCDF expression vector. Biological duplicates of the resulting strains were incubated in 0.5 mL of terrific broth containing either 1 g/L heptanedioate or 1 g/L monomethyl heptanedioate and supplemented with 0.4 mM IPTG in 96-well deep well plates. The plates were incubated for 30 h at 30° C. in a shaking incubator. The cells were then pelleted, and culture supernatants from the same strains in media containing either heptanedioate or monomethyl heptanedioate were combined. The combined supernatants were analyzed by LC-MS to determine the concentration of heptanedioate and monomethyl heptanedioate. Carboxylate reductase activity on heptanedioate or monomethyl heptanedioate was reflected by consumption of the respective substrate in the medium.

Molecule | activity toward heptanedioyl-ACP (hydrolysis) (heptanedioyl-ACP) | activity toward heptanedioyl-ACP methyl ester (hydrolysis) [1] | monomethyl heptanedioate activity [2]
B1 | notable for their activity toward heptanedioyl-ACP |  | 
B2 | notable for their activity toward heptanedioyl-ACP | notable for their activity toward heptanedioyl-ACP methyl ester | 
B3 | notable for their activity toward heptanedioyl-ACP |  | 
B4 | notable for their activity toward heptanedioyl-ACP | notable for their activity toward heptanedioyl-ACP methyl ester | 
B5 |  |  | most monomethyl heptanedioate activity
B6 |  |  | most monomethyl heptanedioate activity
B7 | notable for their activity toward heptanedioyl-ACP |  | 
B8 | notable for their activity toward heptanedioyl-ACP |  | 
B9 | notable for their activity toward heptanedioyl-ACP |  | 
B10 | notable for their activity toward heptanedioyl-ACP |  | 
